How the values were obtained:
[1] = system: leukemia, liver and lung cancer cells; experiment: Tumoricidal activity in vitro (MTS cell viability); assay type: cell-based, human
Experimental: (§1) After treatment, MTS reagent (Promega, USA) was then added and reacted for 2-4 hours and the absorbance values (OD value) of each well were read by using an automatic multi-well spectrophotometer, Wellscan MK3 (Thermo Labsystems, Finland) at the wavelength of 492 nm. OD value of no cell wells is considered as “0,” and the survival rate of the cells is equal to ratio of OD value of treated wells to OD value of control wells.

[2] = system: liver cancer cells SMMC-7721; experiment: Tumoricidal activity in vivo, SMMC-7721 cells in nude mice; parameters: species or system nude mice BALB/c; conditions: SMMC-7721 in nude mice
Experimental: (§2) The dose was 15 mg/kg, three times administration in total. The mice of negative control group (n=8) were administrated with physical saline. The mice of positive control group (n=5) were administrated with cyclophosphamide (CTX, 60 mg/kg). […] Three weeks later, the mice were sacrificed and the growth of tumor was determined by the weight of the tumor mass.

[3] = system: tumor cells such as liver and lung cancer; experiment: Synergy of tumoricidal activity with TRAIL; assay type: cell-based; conditions: combined with TRAIL
[4] = system: human primary normal lymphocytes; experiment: Effect on normal human primary lymphocytes in vitro (MTS); assay type: cell-based
Experimental: as §1

[5] = system: human leukemia, liver and lung cancer cells; experiment: Suppression of tumor formation and growth of human tumor cells in nude mice; assay type: in vivo; conditions: compared to the control group
Experimental: as §2

[6] = molecular target: T1, recombinant human DR4 extracellular domain protein (Homo sapiens, UniProt O00220); experiment: ELISA cross-reactivity of AD5-10 with DR4; assay type: binding
T1 construct: recombinant human DR4 or DR5 extracellular domain protein expressed in E. coli; made in house; host or cells: E. coli
T1 sequence (O00220 24-239 limits assumed): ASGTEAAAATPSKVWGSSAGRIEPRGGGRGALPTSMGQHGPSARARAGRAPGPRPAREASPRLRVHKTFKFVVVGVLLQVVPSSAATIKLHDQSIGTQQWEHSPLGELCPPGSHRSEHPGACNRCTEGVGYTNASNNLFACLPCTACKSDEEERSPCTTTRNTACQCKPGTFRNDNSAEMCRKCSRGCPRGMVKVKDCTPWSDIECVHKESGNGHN
Experimental: ELISA was used for testing the specific combination of AD5-10 with its anitgen. ELISA plates (Costar, USA) were coated with recombinant human DR4 or DR5 extracellular domain protein expressed in E. coli over night, blocked with 5% nonfat milk at room temperature for two hours. […] The absorbency at 492 nm was measured on a microtiter reader of enzyme-labelled machine, Wellscan MK3 (Thermo Labsystems, Finland).

Jurkat cells = experiment: Western blot of caspase activation and PARP cleavage; assay type: cell-based, human
Experimental: After the collected cells were lysed in cell cleavage solution, SDS-PAGE was used, the proteins separated in the gel were subsequently electrotransferred onto a polyvinylidene difluoride (PVDF) membrane. The membrane was then incubated with the indicated primary antibodies (Santa Cruz, USA) and probed with HRP-conjugated secondary antibodies (Beijing Zhongshan Co.). The proteins were visualized by ECL Plus Western Blotting Detection System (Amersham Biosciences, USA).

B1: AD5-10: murine monoclonal antibody against human TRAIL receptor DR5, subtype IgG3κ, VL SEQ ID No. 1, VH SEQ ID No. 2, hybridoma CGMCC 1192 (antibody, V domains shown)
VH: QIQLVQSGPELKKPGETVKISCKASGYTFTDFSMNWVKQAPGKGLKWMGWINTETGEPTYADDFKGRFALSMETSASTAYLQINNLKNEDTATYFCVRIDYWGQGTTLTVSS
VL: DVVMTQTPLSLPVSLGDQASISCRSSQSLVHSNGNTYLHWYLQKPGQSPKLLIYKVSNRFSGVPDRFSGSGSGTDFTLKISRVEAEDLGVYFCFQSTHVPHTFGGGTKLEIKR
modifications: mus musculus
For B1, the “killing of tumor cells” value [1] was “kills leukemia, liver and lung cancer cells with dose-dependent manner”, the tumor formation ([2]; early treatment) was “inhibits the tumor formation” and the tumor growth ([2]; late treatment) was “inhibites the tumor growth”. For the same molecule, the “synergy with TRAIL” value [3] was “can synergize the tumoricidal activity with TRAIL”, the “death and abnormalism in appetite, function, skin and hair” value (Toxicity study in mice; 150 mg/kg, 1 and 2 month's observation) was “does not cause observably death” and the “histological analysis of organs” value (Toxicity study in mice; mice, organs such as liver) was “no pathological changes”. The “toxicity to normal lymphocytes” value [4] was “without toxicity to human primary normal lymphocytes in vitro”, the inhibition rate [5] was “about 80%” and the “cross-reaction with death receptor DR4” value [6] was “does not cross-react”. For the same molecule, the “caspase cascade activation and PARP cleavage” value (Jurkat cells) was “activates caspase cascade and PARP (poly ADP-ribose polymerase) cleavage”.
